Data: article PMC2112417
pEC50: −log10 of the molar value.

What was measured:
[1] = target: EGF receptor on Swiss mouse 3T3 cells (mouse (endogenous in Swiss 3T3)) (UniProt Q01279); test: radioligand binding
[2] = target: PDGF receptor on Swiss mouse 3T3 cells (mouse (endogenous in Swiss 3T3)) (UniProt P05622); test: radioligand binding
Sequence of UniProt P05622 (P05622 32-1098): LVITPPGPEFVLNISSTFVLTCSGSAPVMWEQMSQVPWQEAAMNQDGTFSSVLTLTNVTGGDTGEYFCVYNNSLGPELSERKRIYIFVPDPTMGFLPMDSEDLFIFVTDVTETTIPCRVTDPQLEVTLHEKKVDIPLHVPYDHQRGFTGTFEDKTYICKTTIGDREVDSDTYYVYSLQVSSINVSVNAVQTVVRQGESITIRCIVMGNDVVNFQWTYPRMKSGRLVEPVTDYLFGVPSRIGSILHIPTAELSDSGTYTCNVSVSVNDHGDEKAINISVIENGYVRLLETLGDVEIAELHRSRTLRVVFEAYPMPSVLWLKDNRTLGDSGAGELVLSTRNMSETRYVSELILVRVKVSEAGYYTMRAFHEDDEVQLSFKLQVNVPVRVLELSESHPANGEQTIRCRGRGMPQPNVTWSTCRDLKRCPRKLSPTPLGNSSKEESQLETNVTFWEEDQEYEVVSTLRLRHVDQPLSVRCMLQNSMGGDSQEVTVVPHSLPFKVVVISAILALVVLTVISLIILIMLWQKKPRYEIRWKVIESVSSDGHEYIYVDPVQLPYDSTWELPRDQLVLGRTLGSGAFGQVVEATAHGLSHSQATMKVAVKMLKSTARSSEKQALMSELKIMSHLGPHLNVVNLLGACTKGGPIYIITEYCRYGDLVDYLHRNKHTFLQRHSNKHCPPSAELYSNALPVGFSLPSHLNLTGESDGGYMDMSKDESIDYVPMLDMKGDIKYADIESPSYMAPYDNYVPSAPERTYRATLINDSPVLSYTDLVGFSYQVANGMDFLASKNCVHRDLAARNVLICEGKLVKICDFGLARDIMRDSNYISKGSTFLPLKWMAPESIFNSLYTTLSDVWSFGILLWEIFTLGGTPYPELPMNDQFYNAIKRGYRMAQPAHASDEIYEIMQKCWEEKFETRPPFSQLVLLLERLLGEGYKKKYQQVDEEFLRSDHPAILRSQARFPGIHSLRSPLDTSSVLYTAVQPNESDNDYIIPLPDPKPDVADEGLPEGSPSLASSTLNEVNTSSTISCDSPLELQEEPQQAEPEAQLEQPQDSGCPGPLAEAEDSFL

| Substance | % of prebound ligand removed by 3 min 0.1% acetic acid [1] | pEC50 [1] | binding to acid-treated cultures, % of binding to untreated cultures [1] | decrease in 125I-EGF binding after preincubation with 2 ng/ml PDGF [1] | half-maximal binding after preincubation with 0.5 ng/ml PDGF [1] | half-maximal binding after preincubation with 10 ng/ml PDGF [1] | binding to acid-treated cultures, % of binding to untreated cultures [2] |
| --- | --- | --- | --- | --- | --- | --- | --- |
| 125I-epidermal growth factor (ligand) | 78% | 8.89 | 101% | 60% | 1.6 nM | 2 nM |  |
| 125I-platelet-derived growth factor (from UniProt P04085 87-211; P01127 82-190) (ligand) |  |  |  |  |  |  | 103% |
